Data on 19 sequences can be found in the DeepSol protein solubility set.

The nature of the data set: soluble on expression in E. coli; label from the status in PepcDB or PDB records.
For the sequence “MSLDAGRHRVALLVPLTGANAAVGQSIANAATMALLDTNAANMRITTYDTASGAGSAASRAISDGNKLILGPLLGNDVVLVSNVARPAKVPMITYSNDSAVASRDVFVMGQAPGQSVARVLGFAKSKGIGSVAAIIPTGDYGQRAMNAVVDSGRALGVTVTAIETYDRGNTSVASAVRRVKEKGRFDALLIADGSRIALQAAPLAGKGVKLLGTELWSGEAAIAKSPATRGSWFAAVSDGRFGQFEKSYRTRFGATPSRLATLGYDSVLLTLNVARNWKPGTTFPTAKLYDPQGFIGLDGVFRFTASGMAERAMEVREVGAGTFTTVSPAEGHHHHHH”, the “soluble on expression in E. coli” value is “soluble”. Consider “SLIDTHCHLDLYPKPGTVIAEADKRGMFVIAVTTTPKAFLGNIRMTEGKKRIRVAVGLHPELVAERHREVEDVCKLMAKTKYVGEIGIDGSPPHKSSIKLQTEVFARFLTRASELGGKVLSIHSRGAAALVLDEIERNGHGTLPILHWFSGSKQQVERAAKLGCWFSVGPAMLRSRKGRELLASMPRHRLLTETDGPFATDVDRPLMPWDVSMALPAIADVWGTTPVGVDQVVSANFRELINATEQGRAAAKLVGNC”, for which the “soluble on expression in E. coli” value was “not soluble”. Next, “MGSDKIHHHHHHMTPRISQKEVNDAVWNACDTFRGVVDASAYKDYVLTMLFLKYISDVWQDNYDTYKAEYGDAPELIEEMMKNERFVLPKDASFYALYERRFEAGNGERIDKALHAIEEANMGKLNDVFQDISFNSTKLGDDKQKNDILRHMLEDFSKPELNLRPSRIGNLDIIGNAYEFLIKHFAASSGKKAGEFYTPPEVSQLIAELVNPQEGDEICDPACGSASLLMKCAKLIKDRFGNRKYALYGQEAIGSTWSLAKMNMFLHSEDNHRIEWGDTLRNPLLLDGDDHLKHFDIVVANPPFSLDKWGHEAAEADRFGRFRRGIPPKTKGDYAFILHMIETLKPGTGRMGVVVPHGVLFRASSEGEIRKQLIKENLLDMVIGLPEKLFYGTGIPAAILVFRKNKKDNNVLFIDASREYQDGKNQNFLRDEDIQKVLDTAKARESVDKYAYLATLEEIRENDFNLNIPRYVDTFEEEEEIDLEAVLKERKELKADLAKLEVEMEGYLKELGYLTGEE”: “not soluble”. With “MKYKIFASTTPQTEPVLQKLKQVLKGCEAVEKGFDYLFVLGGDGFFVSTVANYNCHNCRVVGINTGHLGFYTSFNEKDLDDNFLQKLQQCHFQRISLLEVSVNGQQHLVLNELAVYTNTAYPINIFIDGEAWEFYRGSGLLIGPRTGSTALAKSAKGAVIFPGIDVLQIIEMNPLLHPNQVTIQSPIILPKETQVEFVVKKAFNPQQFPTFYCDGRKLELPNADTTLALKLVQSTPMFNISLKTQDFINKLKSTFIKQS”, the “soluble on expression in E. coli” value is reported as “soluble”.

With “MTAASIDRELVPWSDPEFRNNPYPWYRRLQQDHPVHKLEDGTYLVSRYADVSHFAKLPIMSVEPGWADAGPWAVASDTALGSDPPHHTVLRRQTNKWFTPKLVDGWVRTTRELVGDLLDGVEAGQVIEARRDLAVVPTHVTMARVLQLPEDDADAVMEAMFEAMLMQSAEPADGDVDRAAVAFGYLSARVAEMLEDKRVNPGDGLADSLLDAARAGEITESEAIATILVFYAVGHMAIGYLIASGIELFARRPEVFTAFRNDESARAAIINEMVRMDPPQLSFLRFPTEDVEIGGVLIEAGSPIRFMIGAANRDPEVFDDPDVFDHTRPPAASRNLSFGLGPHSCAGQIISRAEATTVFAVLAERYERIELAEEPTVAHNDFARRYRKLPIVLS”, the “soluble on expression in E. coli” value is given as “soluble”. Consider “MSLFPDKYDSYLYINQDKIREDLKRALKDALRICLFHITHKSPNIRTEKATRICYYRECGYTDEQIIDKILEEEYVGFVDNIESAIKSREARFRNPQNSAKIACFTENVQSKYMWDRYADGYKGFALEYDLRNCVFKYNKLGMNVNLFPVIYTDLRPDVTLDEGNIHTYEYFKQIGDKNWLNYLNSIISVNQLYWYKAYLYKDQKEYEHEHEWRMLYYNFENEEDYASIPDTGCLKAIYYGPDIAKKDKEKLHRIAVKKGLKEYDVNLDAESRKYDLKVTMFQEGHHHHHH”, for which the “soluble on expression in E. coli” value is recorded as “not soluble”.

As to “MGSDKIHHHHHHMKNNTGYIIGAYPCAPSFHQKSEEEETEFWRQLSDTPDIRGLEQPCLEHLHPLGDEWLLRHTPGNWQIVVTAIMETMRRRSENGGFGLASSDEEQRKACVEYYRHLYQKINKINGNNTGKVIALELHAAPLAGNPNVAQATDAFARSLKEIANWDWSCDLVLEHCDAMTGPAPRKGFLPLVNVLETIADYDISVCINWARSAIEGRDTSLPLIHTQQAKQAGKLGALMFSGTTLDGEYGEWQDLHAPFAPFCPQSLMTEKHVKELITAAAPELLQFTGIKLLEINASADINHRINILRDGINMMKKATRR”, the “soluble on expression in E. coli” value was “not soluble”.

Turning to “MLRVRCLRGGSRGAEAVHYIGSRLGRTLTGWVQRTFQSTQAATASSRNSCAADDKATEPLPKDCPVSSYNEWDPLEEVIVGRAENACVPPFTIEVKANTYEKYWPFYQKQGGHYFPKDHLKKAVAEIEEMCNILKTEGVTVRRPDPIDWSLKYKTPDFESTGLYSAMPRDILIVVGNEIIEAPMAWRSRFFEYRAYRSIIKDYFHRGAKWTTAPKPTMADELYNQDYPIHSVEDRHKLAAQGKFVTTEFEPCFDAADFIRAGRDIFAQRSQVTNYLGIEWMRRHLAPDYRVHIISFKDPNPMHIDATFNIIGPGIVLSNPDRPCHQIDLFKKAGWTIITPPTPIIPDDHPLWMSSKWLSMNVLMLDEKRVMVDANEVPIQKMFEKLGITTIKVNIRNANSLGGGFHAWTCDVRRRGTLQSYLD”, the “soluble on expression in E. coli” value was “soluble”. For “SNAMSKRVLMVVTNHTTITDDHKTGLWLEEFAVPYLVFQEKGYDVKVASIQGGEVPLDPRSINEKDPSWAEAEAALKHTARLSKDDAHGFDAIFLPGGHGTMFDFPDNETLQYVLQQFAEDGRIIAAVCHGPSGLVNATYKDGTPIVKGKTVTSFTDEEEREVGLDVHMPFLLESTLRLRGANFVRGGKWTDFSVRDGNLITGQNPQSSRSTAEKVVAALEERE”, the “soluble on expression in E. coli” value is reported as “soluble”. For “MSLDQREILQKFLDEAQSKKITKEEFANEFLKLKRQSTKYKADKTYPTTVAEKPKNIKKNRYKDILPYDYSRVELSLITSDEDSSYINANFIKGVYGPKAYIATQGPLSTTLLDFWRMIWEYSVLIIGMACMEYEMGKKKCERYWAEPVEMQLEFGPFSVSCEAEKRKSDYIIRTLKVKFNSETRTIYQFHYKNWPDHDVPSSIDPILELIWDVRCYQEDDSVPICIHCSAGCGRTGVICAIDYTWMLLKDGIIPENFSVFSLIREMRTQRPSLVQTQEQYELVYNAVLELFKRQMDVIRDKHSGTESQAKEGHHHHHH”, the “soluble on expression in E. coli” value was “soluble”. For the sequence “MRYDVSSNSLYVFCSIVLFSDLRFRIGGKYMAERHMFLKKDPSKENSIIVSNIPAFVGEGVVLAIIDQFASFEVEESFVQRSNTADNSLSQGQLTMSITFDKPEAVIQTLALCQDVGPFTITDFLEDPEFPSVLKDSTTLYRKLFPSEEQIQEMADTYVERYDTEQTEARKEAKRKYSEPDEDGWITVTKAKKAAKSVKLKKEDVPLIGGLNNKKKKVDLAYYTFQIKKNRQEKAQELLKKFEEDRKRITQLKQARNFKPI”, the “soluble on expression in E. coli” value is listed as “not soluble”. With “MERNYEESALFEHQFWLKVLTDHSQFLLDALAPKEKEDIKKATYFVETFTNLLNKVRNVNLIAFSKEAERAAKEIRTFKLSIIQKQLEGKITIHFTPTFINHMVNEVEEYITVLEFLNKGEVPPVFHELHYHLVWLTDAAGHAGSISGGLDLVEKRLKEKSEEFTKHFEQFYLKAVEMTGYLRTELHHFPALKKFTKDVSLELKLFSHFLHEVEELELSNEILSALSARMADHMAREECYYLLKLAQSSGLEMPKCNPL”, the “soluble on expression in E. coli” value was “not soluble”. The entry for “EIVMTQSPATLSVSPGERATLSCRASQSIGNNLHWYQQKPGQAPRLLIYYASQSISGIPARFSGSGSGTEFTLTISSLQSEDFAVYYCQQSNSWPYTFGGGTKVEIK” is “soluble”; for “GPVDPAEYDAVWSAWRRAAPAEESRGRAAVVQKMRACLNNGNAVLNVGESGLTTLPDCLPAHITTLVIPDNNLTSLPALPPELRTLEVSGNQLTSLPVLPPGLLELSIFSNPLTHLPALPSGLCKLWIFGNQLTSLPVLPPGLQELSVSDNQLASLPALPSELCKLWAYNNQLTSLPMLPSGLQELSVSDNQLASLPTLPSELYKLWAYNNRLTSLPALPSGLKELIVSGNRLTSLPVLPSELKELMVSGNRLTSLPMLPSGLLSLSVYRNQLTRLPESLIHLSSETTVNLEGNPLSERTLQALREITSAPGYSGPIIRFDMAGASAPRETRALHLAAADWLVPAREGEPAPADRWHMFGQEDNADAFSLFLDRLSETENFIKDAGFKAQISSWLAQLAEDEALRANTFAMATEATSSCEDRVTFFLHQMKNVQLVHNAEKGQYDNDLAALVATGREMFRLGKLEQIAREKVRTLALVDEIEVWLAYQNKLKKSLGLTSVTSEMRFFDVSGVTVTDLQDAELQVKAAEKSEFREWILQWGPLHRVLERKAPERVNALREKQISDYEETYRMLSDTELRPSGLVGNTDAERTIGARAMESAKKTFLDGLRPLVEEMLGSYLNV” it is “soluble”. Next, “MSIKFELIDVPIPQGTNVIIGQAHFIKTVEDLYEALVTSVPGVKFGIAFCEASGKRLVRHEANDEELRNLAIDLCKKIAAGHVFVIYIRNAWPINVLNAIKNVPEVVRIFAATANPLKVIVAEVEPERRGVVGVVDGHSPLGVETEKDREERKKFLREVVKYKL”: “soluble”; “MSLAQGDTEVPTLYLWKTGPWGRCMGDDCGPGGIQTRAVWCAHVEGWTTLHTNCKQAVRPSNQQNCFKVCDWHKELYDWRLGTWDRCQPVISKSLEKSRECVKGEEGIQVREIMCIQKDKDIPAEDIICEYFEPKPLLEQACLIPCQKDCMVSEFSPWSECSRTCGSGLQHRTRHVVAPPQYGGSGCPNLTEFQVCQSNPCEEDESLYSLQVGPWSACSVPHTRQARQARRRGKNKEREKERGKAVKDPEARELIKKKRNRNRQNRQENRYWDIQIGYQTRDVTCLNRTGKSADLSFCQQERLPMTFQSCVITKECQVSEWLEWSPCSKTCHDVTSPTGTRVRTRTITQFPIGSEKECPALEEKEPCVSQGDGAVLCATYGWRTTEWTECHVDPLLSQQDKRRANQTALCGGGVQTREIYCIQTNDNMLSHGNTEGHHHHHH”: “not soluble”. “MKQLTLAKTVKGVGIGLHKGEPIEITLEPLEANSGIVFFRSDLNASYKASPENVINTQMATVLGDDRGFISTIEHLMSAINAYGIDNVRIVLNANEAPVMDGSSISFCMMLDEAGVKELDAPKKIMVIKKPIEVRDGNKFVRLTPTKEPRINYTIKFDNAVIGEQSYNFEFSKKNYIENIARARTFGFLKDVQALRSMNLALGGSLENTIVVDENRILNPEGLRFKDEFVRHKILDAIGDLTLLGYRVFGDYTSYAGSHHLNHLLTKEVLKDKDAYEIVSLEKTTQKAYEKVFALEHHHHHH”: the “soluble on expression in E. coli” value is on record as “soluble”. Consider “LKDFSFDLNVNLAKNVSNVEKLADGVDYIYFNGDSNFPINVGARPGHKLGEIYAKTLYKRDEQGNIIINKENGLPMTTTDADERLAKPIGNIQPNLLMSVSPSFTYKGITLSAIFDMKFGGDIISISEMNATGSGMAKRTMNRGESDNFMMIFPGVYEDGTPNTQKISASNYYGAQNAEDFIYDASFIKLKELAIGYTFPKSMLKKTPINSLNVSFVARNLAYLLKHTPGTSPEGGYDTTMFSQAIDFMAVPYTRTFGFSVNLGF”, for which the “soluble on expression in E. coli” value is reported as “not soluble”.

For “MGSDKIHHHHHHMKKPFLHSESAADVGMEIQQSYDRLLETTRKWIDILHFDPLLETGLTPRDIVWRKNKSRLYRYVNHKGYKHRTPILMLYALINKAYILDLRPGMSLVEYLVDQGFDVYLLDWGEFDWEDRDLSFSQLIVDYISRAVYKVCQYSNVNELSILGYCMGGTMATMYASLYPQPRIKNMIYVAAPIDFEDAGLSSIWLKASVFDVDKVTDTFSLIPKEFVDLGLKMLNPVNNFVATYTRLWKAIDEGVSIEAWKALNKWVDDNINFPGKAYREWVKYLYQENALVKDEFIINGRKVVLSNIDAALLVLTGKTDHIVLPQQSTPILELSSSQDKTNLQYPVGHGGLVFGSRARNEVYPTIAEWLAQRS”, the “soluble on expression in E. coli” value is “not soluble”.
